Biological target: unmutated common ancestor of the AB-3467 clonal lineage, expressed as human IgG1 (human V(D)J (Ig-humanized TRIANNI mouse))
Assay: BLI

SARS-CoV-2 receptor-binding domain (from UniProt P0DTC2 333-528) (domain or fragment)
Kd: 0.499 µM
